Data: patent US20250340604A1 (ENKEFALOS BIOSCIENCES, published 2025)

T1: human leptin receptor (Hu ObR), recombinant extracellular domain (human, UniProt P48357 22-839)
T1 construct: extracellular domain; Recombinant Fc fusion (R&D Systems) or His-tagged (Sino Biologicals)
T1 sequence (looked up): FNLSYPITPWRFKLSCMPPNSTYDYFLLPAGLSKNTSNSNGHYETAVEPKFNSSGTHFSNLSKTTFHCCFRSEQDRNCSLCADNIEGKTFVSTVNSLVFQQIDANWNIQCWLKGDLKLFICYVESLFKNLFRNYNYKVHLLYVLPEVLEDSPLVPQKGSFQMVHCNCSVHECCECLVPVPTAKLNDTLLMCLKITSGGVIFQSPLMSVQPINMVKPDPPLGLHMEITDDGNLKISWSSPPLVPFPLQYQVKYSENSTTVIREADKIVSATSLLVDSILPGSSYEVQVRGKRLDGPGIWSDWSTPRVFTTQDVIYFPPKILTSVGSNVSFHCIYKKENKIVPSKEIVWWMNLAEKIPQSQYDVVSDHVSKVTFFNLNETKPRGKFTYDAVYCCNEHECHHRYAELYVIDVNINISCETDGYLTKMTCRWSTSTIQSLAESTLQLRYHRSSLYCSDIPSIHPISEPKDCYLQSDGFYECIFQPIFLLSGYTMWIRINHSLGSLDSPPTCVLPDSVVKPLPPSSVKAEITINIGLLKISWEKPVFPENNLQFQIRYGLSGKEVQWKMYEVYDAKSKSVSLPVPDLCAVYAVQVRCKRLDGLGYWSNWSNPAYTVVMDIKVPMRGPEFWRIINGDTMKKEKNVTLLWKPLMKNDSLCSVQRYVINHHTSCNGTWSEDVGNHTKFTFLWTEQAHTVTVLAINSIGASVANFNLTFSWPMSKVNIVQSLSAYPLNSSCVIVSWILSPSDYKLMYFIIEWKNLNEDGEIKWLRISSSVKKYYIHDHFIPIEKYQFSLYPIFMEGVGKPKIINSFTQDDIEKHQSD


What follows are binders tested against T2, human receptor for advanced glycation-end products (Hu RAGE), recombinant extracellular domain (human, UniProt Q15109 23-342) (assay: phage selection and phage ELISA on coated receptor ECD).
T2 construct: extracellular domain; Recombinant Fc fusion (R&D Systems) or His-tagged (Sino Biologicals)
T2 sequence (Q15109 23-342): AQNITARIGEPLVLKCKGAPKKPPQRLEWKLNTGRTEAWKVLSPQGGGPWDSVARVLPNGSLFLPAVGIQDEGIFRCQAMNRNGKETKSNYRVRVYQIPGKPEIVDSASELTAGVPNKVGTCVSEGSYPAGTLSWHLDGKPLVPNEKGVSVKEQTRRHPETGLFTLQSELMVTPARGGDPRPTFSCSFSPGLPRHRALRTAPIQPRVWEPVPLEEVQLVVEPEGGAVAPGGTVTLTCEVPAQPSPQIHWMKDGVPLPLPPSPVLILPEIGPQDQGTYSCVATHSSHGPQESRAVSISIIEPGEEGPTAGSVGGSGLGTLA

| Binder | binding result |
| --- | --- |
| GGVCHVGYWWHIWMGACRRDSDCPGACICRGNGYCGSGSD (designed binder) [CYC28] | binds |
| GGVCVSNFWFMHWFGVCRRDSDCPGACICRGNGYCGSGSD (designed binder) [CYC29] | binds |

Each binder was assayed against T1, human leptin receptor (Hu ObR), … in the same assay as above.

| Binder | binding result |
| --- | --- |
| GGVCPWPKWTYMAQKYCRRDSDCPGACICRGNGYCGSGSD (designed binder) [CYC1] | binds |
| GGVCPTQTWWFWLPAQCRRDSDCPGACICRGNGYCGSGSD (designed binder) [CYC10] | binds |
| GGVCYVDWPWTLTLWYCRRDSDCPGACICRGNGYCGSGSD (designed binder) [CYC11] | binds |
| GGVCEWSDWFPYEFLFCRRDSDCPGACICRGNGYCGSGSD (designed binder) [CYC12] | binds |
| GGVCPTAMWFDWFTVYCRRDSDCPGACICRGNGYCGSGSD (designed binder) [CYC13] | binds |
| GGVCFLWFWYGFSRTLCRRDSDCPGACICRGNGYCGSGSD (designed binder) [CYC14] | binds |
| GGVCQSFFWWHSWFGVCRRDSDCPGACICRGNGYCGSGSD (designed binder) [CYC2] | binds |
| GGVCHSQFWPWEWYQFCRRDSDCPGACICRGNGYCGSGSD (designed binder) [CYC3] | binds |
| GGVCWRWTPKIWVLEEMSSCSDCPGACICRGNGYCGSGSD (designed binder) [CYC4] | binds |
| GGVCWQGMMLFFVGEKCRRDSDCPGACICRGNGYCGSGSD (designed binder) [CYC5] | binds |
| GGVCGWFYWYHKWFGPCRRDSDCPGACICRGNGYCGSGSD (designed binder) [CYC6] | binds |
| GGVCYDWGWFWPFEQYCRRDSDCPGACICRGNGYCGSGSD (designed binder) [CYC7] | binds |
| GGVCSDRWDWMFATWLCRRDSDCPGACICRGNGYCGSGSD (designed binder) [CYC8] | binds |
| GGVCVQPWYSWFMEQGCRRDSDCPGACICRGNGYCGSGSD (designed binder) [CYC9] | binds |

What follows are binders tested against T3, human HER3/ErbB3 (Hu ErbB3), recombinant extracellular domain (human, UniProt P21860 20-643) in the same assay as above.
T3 construct: extracellular domain; Recombinant Fc fusion (R&D Systems) or His-tagged (Sino Biologicals)

| Binder | binding result |
| --- | --- |
| GGVCRHSYSQIPLWCRRDSDCPGACICRGNGYCGSGSD (designed binder) [CYC15] | binds |
| GGVCWWDKWVFPISRQCRRDSDCPGACICRGNGYCGSGSD (designed binder) [CYC16] | binds |

What follows are binders tested against T4, human transferrin receptor (Hu TrfR), recombinant extracellular domain (human, UniProt P02786 89-760) in the same assay as above.
T4 construct: extracellular domain; Recombinant Fc fusion (R&D Systems) or His-tagged (Sino Biologicals); also called human TfR
T4 sequence (P02786 89-760): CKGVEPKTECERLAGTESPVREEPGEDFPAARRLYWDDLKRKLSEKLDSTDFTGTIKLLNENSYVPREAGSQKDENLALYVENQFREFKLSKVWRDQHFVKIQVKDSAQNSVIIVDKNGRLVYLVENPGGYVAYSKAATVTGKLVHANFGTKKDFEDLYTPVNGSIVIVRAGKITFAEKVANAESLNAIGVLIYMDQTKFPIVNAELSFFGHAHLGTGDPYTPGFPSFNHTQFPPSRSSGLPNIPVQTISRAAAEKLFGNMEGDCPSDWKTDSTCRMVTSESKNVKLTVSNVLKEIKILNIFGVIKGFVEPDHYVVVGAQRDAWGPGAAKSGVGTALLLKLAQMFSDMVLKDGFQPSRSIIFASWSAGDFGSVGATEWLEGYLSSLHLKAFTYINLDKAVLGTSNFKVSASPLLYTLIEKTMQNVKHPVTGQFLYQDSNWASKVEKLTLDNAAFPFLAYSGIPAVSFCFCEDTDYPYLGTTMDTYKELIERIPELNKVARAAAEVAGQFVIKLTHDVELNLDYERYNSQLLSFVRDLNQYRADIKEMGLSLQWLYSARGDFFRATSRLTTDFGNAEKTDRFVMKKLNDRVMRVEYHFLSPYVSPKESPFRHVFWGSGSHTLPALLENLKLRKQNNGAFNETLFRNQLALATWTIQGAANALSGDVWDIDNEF

| Binder | binding result |
| --- | --- |
| GGVCDPRWLAGWGSCRRDSDCPETCICRGNGYCASGYD (designed binder) [CYC18] | binds |
| GGVCKALWYMGWGTCRRDSDCPGACICRGNGYCGSGSD (designed binder) [CYC24] | binds |
| GGVCKQNWLPGWGTCRRDSDCPGACICRGNGYCGSGSD (designed binder) [CYC25] | binds |
| GGVCEYFRWHLDSWGECRRDSDCPGACICRGNGYCGSGSD (designed binder) [CYC40] | binds |
| GGVCLVSQWHIESWGQCRRDSDCPGACICRGNGYCGSGSD (designed binder) [CYC41] | binds |
| GGVCQEERWHMHSWGPCRRDSDCPGACICRGNGYCGSGSD (designed binder) [CYC42] | binds |
| GGVCRYQEWHMESWGSCRRDSDCPGACICRGNGYCGSGSD (designed binder) [CYC43] | binds |
| GGVCLYEAWHLPSWGQCRRDSDCPGACICRGNGYCGSGSD (designed binder) [CYC44] | binds |
| GGVCQMVSEHWVARVWCRRDSDCPGACICRGNGYCGSGSD (designed binder) [CYC45] | binds |

Each binder was assayed against T5, mouse transferrin receptor (Mu TrfR), recombinant extracellular domain (mouse, UniProt Q62351 89-763) in the same assay as above.
T5 construct: extracellular domain; Recombinant Fc fusion (R&D Systems) or His-tagged (Sino Biologicals)
T5 sequence (Q62351 89-763): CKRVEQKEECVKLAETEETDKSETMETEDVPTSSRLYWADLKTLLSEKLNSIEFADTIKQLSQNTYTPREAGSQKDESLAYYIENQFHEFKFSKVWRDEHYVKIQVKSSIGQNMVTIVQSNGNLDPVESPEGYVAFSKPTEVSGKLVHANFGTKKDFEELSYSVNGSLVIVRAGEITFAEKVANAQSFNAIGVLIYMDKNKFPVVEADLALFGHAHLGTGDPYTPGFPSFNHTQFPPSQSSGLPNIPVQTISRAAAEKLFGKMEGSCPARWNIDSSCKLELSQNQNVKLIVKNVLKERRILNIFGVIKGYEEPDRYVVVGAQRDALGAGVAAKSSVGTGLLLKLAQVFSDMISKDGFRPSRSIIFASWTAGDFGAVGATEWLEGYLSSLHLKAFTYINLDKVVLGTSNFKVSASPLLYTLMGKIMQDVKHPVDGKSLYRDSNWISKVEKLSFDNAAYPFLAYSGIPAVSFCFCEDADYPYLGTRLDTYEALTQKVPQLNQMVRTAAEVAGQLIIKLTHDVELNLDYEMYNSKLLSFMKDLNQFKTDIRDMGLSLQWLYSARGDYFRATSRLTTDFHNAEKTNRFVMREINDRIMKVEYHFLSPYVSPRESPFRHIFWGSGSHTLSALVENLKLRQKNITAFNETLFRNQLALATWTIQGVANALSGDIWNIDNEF

| Binder | binding result |
| --- | --- |
| GGVCTVWPFVWWGGVPCRRDSDCPGACICRGNGYCGSGSD (designed binder) [CYC19] | binds |
| GGVCAYVHDWYHHVMYCRRDSDCPGACICRGNGYCGSGSD (designed binder) [CYC20] | binds |
| GGVCMHNSASHNIQMQCRRDSDCPGACICRGNGYCGSGSD (designed binder) [CYC21] | binds |
| GGVCQTVFPMWPWYQLCRRDSDCPGACICRGNGYCGSGSD (designed binder) [CYC22] | binds |
| GGVCHNLFVIESILFWCRRDSDCPGACICRGNGYCGSGSD (designed binder) [CYC23] | binds |
